Reference: patent US20200263147A1

Tests used:
[1] = target: UL37N, the N-terminal half (residues 1 to 496) of pseudorabies virus (PRV) UL37 (pseudorabies virus (PRV)); assay: crystal structure, interface analysis calculated without the calcium ions
[2] = target: UL37N, the N-terminal half (residues 1 to 496) of pseudorabies virus (PRV) UL37 (pseudorabies virus (PRV)); assay: crystal structure, interface analysis (PISA), calcium present

UL37N, the N-terminal half (residues 1 to 496) of pseudorabies virus (PRV) UL37
buried surface area [1]: 1500 Å2 | buried surface area [2]: 1730 Å2
